# Reference: article PMC8640741
# Molecular target: SARS-CoV-2 spike (S) protein in the postfusion state, in situ on the viral membrane (SARS-CoV-2)
# Experiment: cryo-EM structure
substance,measurement,value
"SARS-CoV-2 spike (S) protein in the postfusion state, in situ on the viral membrane (natural protein)",stoichiometry N,3
